# Reference: patent publication US20140348865A1, “[…] ON AN HIV-1 V1V2 SITE-OF-VULNERABILITY” (The United States of America, as represented by the …, priority 2011, published 2014)
# Assays:
# [1] = target: Env of HIV-1 strain 6631 (pseudovirus) (HIV-1)
# [2] = target: Env of HIV-1 strain 3873 (pseudovirus) (HIV-1)
# [3] = target: Env of HIV-1 strain 6322 (pseudovirus) (HIV-1)
# [4] = target: Env of HIV-1 strain 6471 (pseudovirus) (HIV-1)
# [5] = target: Env of HIV-1 strain ZM135 (pseudovirus) (HIV-1)
# [6] = target: Env of HIV-1 strain CNE30 (pseudovirus) (HIV-1)
# epitope-scaffold 2ZJR_B = assay: ELISA, antibody dilution series on the scaffold
# [7] = target: Env of HIV-1 strain 6405 (pseudovirus) (HIV-1)
# [8] = target: Env of HIV-1 strain X2088 (pseudovirus) (HIV-1)
# [9] = target: Env of HIV-1 strain A03349M1 (pseudovirus) (HIV-1)
substance,measurement,setting,value
monoclonal antibody PG16,neutralization IC80,3637.V5.C3 (HIV-1),> 50 µg/mL
same,neutralization IC80,ZM176.66 (HIV-1),0.01 µg/mL
same,neutralization IC80,0077_V1_C16 (HIV-1),0.075 µg/mL
same,neutralization IC80,6644.V2.C33 (HIV-1),> 50 µg/mL
same,neutralization IC80,BR025.9 (HIV-1),0.049 µg/mL
same,neutralization IC80,96ZM651_02 (HIV-1),> 50 µg/mL
same,neutralization IC80,DU156.12 (HIV-1),< 0.023 µg/mL
same,neutralization IC80,ZM214.15 (HIV-1),> 50 µg/mL
same,neutralization IC80,[1],> 50 µg/mL
same,neutralization IC80,SO18.18 (HIV-1),0.136 µg/mL
same,neutralization IC80,ZM197.7 (HIV-1),6.67 µg/mL
same,neutralization IC80,CH181.12 (HIV-1),0.01 µg/mL
same,neutralization IC80,[2],> 50 µg/mL
same,neutralization IC80,CNE58 (HIV-1),< 0.023 µg/mL
same,neutralization IC80,ZM146.7 (HIV-1),> 50 µg/mL
same,neutralization IC80,TV1.29 (HIV-1),0.15 µg/mL
same,neutralization IC80,[3],> 50 µg/mL
same,neutralization IC80,CNE31 (HIV-1),> 50 µg/mL
same,neutralization IC80,CNE15 (HIV-1),< 0.023 µg/mL
same,neutralization IC80,[4],> 50 µg/mL
same,neutralization IC80,DU172.17 (HIV-1),0.134 µg/mL
same,neutralization IC80,DU151.02 (HIV-1),< 0.023 µg/mL
same,neutralization IC80,TZA125.17 (HIV-1),0.719 µg/mL
same,neutralization IC80,CH117.4 (HIV-1),0.028 µg/mL
same,neutralization IC80,[5],> 50 µg/mL
same,neutralization IC80,CNE7 (HIV-1),1.91 µg/mL
same,neutralization IC80,ZM106.9 (HIV-1),> 50 µg/mL
same,neutralization IC80,CAP45.G3 (HIV-1),< 0.023 µg/mL
same,neutralization IC80,CAP244.D3 (HIV-1),0.058 µg/mL
same,neutralization IC80,3168.V4.C10 (HIV-1),0.515 µg/mL
same,neutralization IC80,CNE53 (HIV-1),> 50 µg/mL
same,neutralization IC80,6785.V5.C14 (HIV-1),< 0.023 µg/mL
same,neutralization IC80,CAP210.E8 (HIV-1),0.882 µg/mL
same,neutralization IC80,ZM109.4 (HIV-1),> 50 µg/mL
same,neutralization IC80,ZM215.8 (HIV-1),> 50 µg/mL
same,neutralization IC80,CNE40 (HIV-1),> 50 µg/mL
same,neutralization IC80,TZBD.02 (HIV-1),0.175 µg/mL
same,neutralization IC80,DU422.01 (HIV-1),49.9 µg/mL
same,neutralization IC80,MW965.26 (HIV-1),> 50 µg/mL
same,neutralization IC80,DU123.06 (HIV-1),0.163 µg/mL
same,neutralization IC80,[6],> 50 µg/mL
same,neutralization IC80,ZA012.29 (HIV-1),> 50 µg/mL
same,EC50 (read off the curve),epitope-scaffold 2ZJR_B,1 µg/mL
same,neutralization IC80,3337_V2_C6 (HIV-1),> 50 µg/mL
same,neutralization IC80,57128.vrc15 (HIV-1),> 50 µg/mL
same,neutralization IC80,231965.c1 (HIV-1),> 50 µg/mL
same,neutralization IC80,UG024.2 (HIV-1),> 50 µg/mL
same,neutralization IC80,ZM233.6 (HIV-1),< 0.023 µg/mL
same,neutralization IC80,ZM55.28a (HIV-1),> 50 µg/mL
same,neutralization IC80,[7],> 50 µg/mL
same,neutralization IC80,UG021.16 (HIV-1),> 50 µg/mL
same,neutralization IC80,3326_V4_C3 (HIV-1),0.221 µg/mL
same,neutralization IC80,NKU3006.ec1 (HIV-1),> 50 µg/mL
same,neutralization IC80,[8],> 50 µg/mL
same,neutralization IC80,SIVmac251.30.SG3 (SIV),> 50 µg/mL
same,neutralization IC80,3817.v2.c59 (HIV-1),0.051 µg/mL
same,neutralization IC80,[9],> 50 µg/mL
same,neutralization IC80,SVA.MLV,> 50 µg/mL
same,neutralization IC80,ZM249.1 (HIV-1),9.23 µg/mL
same,neutralization IC80,3016.v5.c45 (HIV-1),> 50 µg/mL
same,neutralization IC80,ZM53.12 (HIV-1),0.103 µg/mL
